Experimental data reported in US20160115235A1 (ARES TRADING S A, published 2016).
Residue numbers refer to the chain shown, from its start.

T1: human CXCR5 (human, UniProt P32302 1-372)
T1 construct: Full length, on stably transfected cells (HEK-293, L1.2, R1610 and others), made with or without a C-terminal tag, or native on primary human B cells; also called hCXCR5; BLR-1
T1 sequence: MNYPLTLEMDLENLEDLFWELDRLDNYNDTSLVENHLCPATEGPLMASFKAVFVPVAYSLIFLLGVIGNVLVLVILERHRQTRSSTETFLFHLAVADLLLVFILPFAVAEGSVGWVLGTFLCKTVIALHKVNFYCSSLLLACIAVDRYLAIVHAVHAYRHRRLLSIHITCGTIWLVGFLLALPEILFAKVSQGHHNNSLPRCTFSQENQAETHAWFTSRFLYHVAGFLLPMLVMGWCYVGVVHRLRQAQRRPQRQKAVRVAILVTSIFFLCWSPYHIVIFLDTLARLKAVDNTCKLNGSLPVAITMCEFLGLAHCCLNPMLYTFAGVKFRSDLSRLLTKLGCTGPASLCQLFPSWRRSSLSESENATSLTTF

T2: human CXCR2 (human, UniProt P25025 1-360)
T2 construct: whole, on cells; Native on the granulocyte population of human whole blood
T2 sequence (looked up): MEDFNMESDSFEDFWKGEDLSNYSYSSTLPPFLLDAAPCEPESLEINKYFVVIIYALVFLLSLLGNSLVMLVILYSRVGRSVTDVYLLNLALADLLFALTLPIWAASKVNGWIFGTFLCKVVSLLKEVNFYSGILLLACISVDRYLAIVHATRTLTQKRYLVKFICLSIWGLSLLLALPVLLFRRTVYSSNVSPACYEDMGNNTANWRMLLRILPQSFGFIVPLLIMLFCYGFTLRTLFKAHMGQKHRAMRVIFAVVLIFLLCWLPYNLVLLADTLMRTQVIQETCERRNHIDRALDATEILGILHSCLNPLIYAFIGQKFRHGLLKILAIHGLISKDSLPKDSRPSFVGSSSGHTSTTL

T3: cynomolgus monkey (Macaca fascicularis) CXCR5 (cynomolgus monkey (Macaca fascicularis), UniProt P32302 1-372 (human entry))
T3 chain: T1 sequence with W19L, L21F, R23K, L24F, L180F, G193A, H195P, A285V, K295E, R357K

B1: anti-CXCR5 40C01-VH1-Vk3 variant (isotype not stated in the example) (antibody, V domains shown)
VH: EVQLLESGGGLVQPGGSLRLSCAASGFTFSRYVMVWVRQAPGKGLEWVSGISPSGGVTRYAASVKGRFTISRDNSKNTLYLQMNSLRAEDTAVYYCARIRKEMTTISYFFDYWGQGTLVTVSS
VL: DIQMTQSPSSLSASVGDRVTITCRASQGVDAYVAWYQQKPGKVPKLLIYSTSTLASGVPSRFSGSGSGTDFTLTISSLQPEDVATYYCQSHNAAVVTFGQGTRLEIK
notes: also called Alexa-Fluor 647 labelled 40C01-VH1-Vk3
B2: anti-CXCR5 40C01-VH1-Vk3-IgG2_DI-NQ-HC2h (antibody)
heavy: EVQLLESGGGLVQPGGSLRLSCAASGFTFSRYVMVWVRQAPGKGLEWVSGISPSGGVTRYAASVKGRFTISRDNSKNTLYLQMNSLRAEDTAVYYCARIRKEMTTISYFFDYWGQGTLVTVSSASTKGPSVFPLAPCSRSTSESTAALGCLVKDYFPEPVTVSWNSGALTSGVHTFPAVLQSSGLYSLSSVVTVPSSNFGTQTYTCNVDHKPSNTKVDKTVEPKSSDKTHTCPPCPAPPVAGPSVFLFPPKPKDTLMISRTPEVTCVVVDVSHEDPEVQFNWYVDGVEVHNAKTKPREEQAQSTFRVVSVLTVVHQDWLNGKEYKCKVSNKGLPAPIEKTISKTKGQPREPQVYTLPPSREEMTKNQVSLTCLVKGFYPSDIAVEWESNGQPENNYKTTPPMLDSDGSFFLYSKLTVDKSRWQQGNVFSCSVMHEALHNHYTQKSLSLSPG
light: DIQMTQSPSSLSASVGDRVTITCRASQGVDAYVAWYQQKPGKVPKLLIYSTSTLASGVPSRFSGSGSGTDFTLTISSLQPEDVATYYCQSHNAAVVTFGQGTRLEIKRTVAAPSVFIFPPSDEQLKSGTASVVCLLNNFYPREAKVQWKVDNALQSGNSQESVTEQDSKDSTYSLSSTLTLSKADYEKHKVYACEVTHQGLSSPVTKSFNRGEC
notes: Whole antibody, modified human IgG2 (subtype HC2h, WO2009010290), kappa light chain; also called 40C01-VH1-Vk3 as IgG2; VH1-Vk3 (isotype 2)
B3: anti-CXCR5 40C01-VH2-Vk3 as IgG2 (antibody)
heavy: B2 heavy with Y32S, M103K
light: B2 light
notes: also called VH2-Vk3 (isotype 2)
B4: anti-CXCR5 40C01-VH1-Vk3-IgG1 (antibody)
heavy: not shown
light: B2 light
B5: anti-CXCR5 40C01-VH2-Vk3 as IgG1 (antibody)
VH: B1 VH with Y32S, M103K
light: B2 light
B6: anti-CXCR5 40C01-VH2-Vk3 variant (isotype not stated in the example) (antibody, V domains shown)
VH: B1 VH with Y32S, M103K
VL: B1 VL
notes: also called Alexa-Fluor 647 labelled 40C01-VH2-Vk3

How the values were obtained:
human CXCR5 [1] = target: T1, human CXCR5; assay: flow cytometry, Alexa Fluor 647 labelled mAb on HEK-293 cells stably transfected with human CXCR5; 40C01-VH1-Vk3, Alexa Fluor 647 labelled, HEK-293 cells with human CXCR5
Experimental: (§1) Anti-CXCR5 40C01-VH1-Vk3 and VH2-Vk3 variants were labelled with Alexa Fluor 647 dye using monoclonal antibody labelling kit from Invitrogen (Cat #A20186). Binding of labelled mAbs to HEK-293 cells stably transfected with human CXCR5 was examined by a direct immunofluorescence assay. A total of 1×10⁵ stable HEK-293 cells over-expressing human CXCR5 were incubated with 1 in 3 serially diluted Alexa Fluor 647 mAbs ranging from 60 μg/ml to 0.33 ng/ml in FACS buffer (PBS containing 1% BSA and 0.1% NaN₃) for 1 h on ice. Cells were washed twice with FACS buffer and analyzed on FACSCalbur flow cytometer (BD Biosciences).

human CXCR5 [2] = target: T1, human CXCR5; assay: flow cytometry, Alexa Fluor 647 labelled mAb on CD19-gated human B cells in whole blood
Experimental: (§2) 40C01-VH1-Vk3 and VH2-Vk3 variants were labelled with Alexa Fluor 647 dye using monoclonal antibody labelling kit from Invitrogen (Cat #A20186). Blood was collected in sodium-heparinised tubes and rested for 2 h at RT. Sodium azide (NaN₃) was then added to whole blood to a final concentration of 0.01%. Serial 1 in 3 dilutions of Alexa-Fluor 647 labelled-mAbs ranging from 60 μg/ml to 3 ng/ml were added to blood samples and incubated for 30 min at RT. Phycoerythrin (PE) labelled anti-CD19 (BD Pharmingen, cat#555413) and anti-human CXCR2 (R&D Systems, cat #FAB331P) mAbs and their respective isotype controls were used for gating B cells and monitoring CXCR2 expression on granulocytes, respectively. Labelled red blood cells were then lysed using the human erythrocyte lysing kit from R&D Systems (Cat # WL1000) and the blood cells resuspended in FACS buffer (PBS-1% BSA, 0.1% NaN₃) and analysed by flow cytometry on FACS Calibur 3 (BD Biosciences). The EC₅₀ and ECB, values were calculated by plotting the FL4 fluorescence (emission of Alexa Fluor 647 dye) as a function of the antibody concentration. […] No binding of the two 40C01 variants was detected on the granulocyte population which expresses CXCR2 (neutrophils).

human CXCR2 = target: T2, human CXCR2; assay: flow cytometry, Alexa-Fluor 647 labelled mAb in human whole blood
Experimental: as §2

human CXCR5 [3] = target: T1, human CXCR5; assay: cell-based or functional assay
[4] = target: T3, cynomolgus monkey (Macaca fascicularis) …; assay: cell-based or functional assay
human CXCR5 [5] = target: T1, human CXCR5; assay: cell-based or functional assay; remark: listed apart in the source
human CXCR5 [6] = target: T1, human CXCR5; assay: cell-based or functional assay; remark: listed apart in the source
human CXCR5 [7] = target: T1, human CXCR5; assay: KinExA, IgG2 mAb equilibrated with HEK-293 cells expressing human CXCR5, n-curve analysis
Experimental: Kinetic Exclusion Assay (KinExA) was used to determine the concentration of the free antibody that remains in solution after equilibrium has been established between the fully human IgG2 (subtype HC2h, as described in WO2009010290) anti-CXCR5 40C01 antibody variants and human CXCR5 expressed on the cell surface of stably transfected HEK-293 cells, from which the equilibrium dissociation constant (Kd) was determined. This method provides a true measure of the affinity/avidity of the antibody to integral membrane proteins like GPCRs.
HEK-293 cells, stably expressing human CXCR5, an integral membrane protein with 7 trans membrane domains, were harvested using Accutase cell detachment solution, resuspended at 2×10⁶ cells/ml and serially diluted 1 in 2 in 15 falcon tubes using KinExA buffer (PBS containing 1 mg/ml BSA and 0.02% NaN₃). An appropriate constant concentration of purified mAb was made in KinExA buffer and an equal volume of the mAb was mixed with the serially diluted cells. […] The cells were then centrifuged and the free mAb present in the supernatant was measured by KinExA using PMMA beads (Sapidyne Instruments, cat#440198) coated with goat anti-human IgG (H+L) (Jackson ImmunoResearch, cat#109-005-003) and DyLight 649-conjugated anti-human secondary antibody (Jackson ImmunoResearch, Goat anti-human Fc, cat#109-495-098) used at 1 μg/ml in KinExA buffer. […]

[8] = target: T3, cynomolgus monkey (Macaca fascicularis) …; assay: cell-based or functional assay
[9] = target: T3, cynomolgus monkey (Macaca fascicularis) …; assay: cell-based or functional assay
human CXCR5 [10] = target: T1, human CXCR5; assay: flow cytometry, Alexa Fluor 647 labelled mAb on HEK-293 cells stably transfected with human CXCR5; 40C01-VH2-Vk3, Alexa Fluor 647 labelled, HEK-293 cells with human CXCR5
Experimental: as §1

Binder | EC50 (human CXCR5 [1]) | EC50 (human CXCR5 [2]) | binding result (human CXCR2) | IC50, inhibition of ERK phosphorylation in whole blood (B cells, CXCL13-stimulated) (human CXCR5 [3]) | IC50, inhibition of ERK phosphorylation in whole blood (B cells, CXCL13-stimulated) [4] | efficacy of inhibition of CXCL13-stimulated L1.2-CXCR5 chemotaxis (human CXCR5 [5]) | IC50, inhibition of CXCL13-induced L1.2-CXCR5 chemotaxis (human CXCR5 [6]) | Kd (human CXCR5 [7]) | IC50, inhibition of human CXCR5-L1.2 cell chemotaxis (human CXCR5 [5]) | mean IC50, inhibition of CXCL13-stimulated chemotaxis of primary human B cells in human serum (human CXCR5 [5]) | efficacy of inhibition of CXCL13-stimulated L1.2-CXCR5 chemotaxis [8] | IC50, inhibition of CXCL13-induced L1.2-CXCR5 chemotaxis [9] | EC50 (human CXCR5 [10])
B1 | 2.26 nM | 1.92 nM | no binding (tested: 60 µg/ml to 3 ng/ml tested) |  |  |  |  |  |  |  |  |  | 
B2 |  |  |  | 0.736 nM | 0.195 nM | 100% | 1.15 nM | 0.0154 nM |  |  |  |  | 
B3 |  |  |  | 0.88 nM | 1.57 nM | 100% | 0.108 nM | 0.047 nM |  |  |  |  | 
B4 |  |  |  | 0.17 nM |  | 100% | 1.81 nM |  | 0.38 nM | 1.89 nM | 100% | 0.19 nM | 
B5 |  |  |  | 0.45 nM |  | 100% | 0.098 nM |  | 0.05 nM | 0.34 nM | 100% | 0.17 nM | 
B6 |  | 7.22 nM | no binding (tested: 60 µg/ml to 3 ng/ml tested) |  |  |  |  |  |  |  |  |  | 4.6 nM
